This note sets out measurements from a protein production outcome set (Wang et al. 2014).
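Note: failed if final PepcDB status was selected cloned or expressed and not failed if soluble or beyond.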

This data set in a line: label from the status in PepcDB records.
For the sequence “MIPSSSPMESRHRLSFSNEKTSRRRFQRIEKGVKFNTLKLVLICIMLGALFTIYRFRYPPLQIPEIPTSFGLTTDPRYVATAEINWNHMSNLVEKHVFGRSEYQGIGLINLNDNEIDRFKEVTKSDCDHVALHLDYAAKNITWESLYPEWIDEVEEFEVPTCPSLPLIQIPGKPRIDLVIAKLPCDKSGKWSRDVARLHLQLAAARVAASSKGLHNVHVILVSDCFPIPNLFTGQELVARQGNIWLYKPNLHQLRQKLQLPVGSCELSVPLQAKDNFYSAGAKKEAYATILHSAQFYVCGAIAAAQSIRMSGSTRDLVILVDETISEYHKSGLVAAGWKIQMFQRIRNPNAVPNAYNEWNYSKFRLWQLTEYSKIIFIDADMLILRNIDFLFEFPEISATGNNATLFNSGLMVVEPSNSTFQLLMDNINEVVSYNGGDQGYLNEIFTWWHRIPKHMNFLKHFWEGDEPEIKKMKTSLFGADPPILYVLHYLGYNKPWLCFRDYDCNWNVDIFQEFASDEAHKTWWRVHDAMPENLHKFCLLRSKQKAQLEWDRRQAEKGNYKDGHWKIKIKDKRLKTCFEDFCFWESMLWHWGETNSTNNSSTTTTSSPPHKTALPSL”, the protein production result is given as “failed”. With “MIPYAFIILLVVFFSVFDFSNLNVFKKKILLFFLSFILILFVGTRFETGDDWGEYTKVFDKIPLVSDLWNDNGMFLLFRMEPGYILFNSVIKSFGGSINEVFLLSSIVVISLFFVFQKRYTLLPFLAVLLYMRYGYMQFNMMFVRQGIAISIFFYSLKYIEDKKIIKYLLINILSSLFHSSLLIVLPLYFVINRRYSNIFLCTVVFISVLLSFFDWMGAILSFFPPFIQSSLTSYTESDVWGGMTGKINIAVAEKFILLLMCLRLREKLEQKNISFNLVFNLFVLSIICYYAFFQTYVFQQRTVLIFQLSTIFIISQLFLFFSVKNRMMVLFILNLMVIYFFFRYINIGKDVYLPYRSWLI” the entry was “failed”; with “MIQAFLEKLPHLDVYGNPQYFFYLILAVLPIYIGLFFKKRFALYEIIFSLSFIVMMLTGSTFNQLKSLLAYVVGQSLLVFIYKAYRKRFNHTLVFYVTVCLSIFPLFLVKLIPAISEDGHQSLFGFLGISYLTFRAVAMIIEMRDGVLKEFTLWEFLRFLLFFPTFSSGPIDRFKRFNEDYINIPDRNELLDMLGQAIHYLMLGFLYKFILAYIFGSLIMPPLKELALEQGGVFNWPTLGVMYAFGFDLFFDFAGYTMFALAISNLMGIKSPINFDKPFKSRDLKEFWNRWHMSLSFWFRDFVFMRLVKLLVKNKVFKNRNVTSSVAYIINMLLMGFWHGLTWYYIAYGLFHGIGLVINDAWVRKKKNINKERRLAKKPLLPENKWTYALGVFITFNVVMFSFLIFSGFLDLLWFPQPHNK”, “failed”. Regarding “MIQARSRRPLSCSLRSSSQNPIATTFLTGGKMDRIVRQILVKLLGGERSVYELIYYQDASLREFFELLNSLRDEGLIEVESGKVRITEKGREVAEKERLKFCGDVECECCEGTGLSINPYFKEILQKYSEIAKDRPETIEVYDQGFISLEGVIRRVEFVYDRGDLNGRIFVVGDDDLFGIAASLTGMPEKVAVVDIDERLINFINRVAEEYSLNVEAFVYDVQQAFPDELKRKFDVFVTDPVETIPGLKLFLSRGVSTLKGVGGAGYFGITTLEASRRKWYEIQRMIHDMGFIITDLRRRFNVYPEDEKNFFRFQEKLPIVRHLQAKVDFNWYNSTLFRIEAVKEPKPIVEGEMIIDEKVYKDDESWATPY”, the protein production entry is “failed”. For the sequence “MIQCEECLCWQHSVCMGLLEESIPEQYICYICRDPPGQRWSAKYRYDKEWLNNGRMCGLSFFKENYSHLNAKKIVSTHHLLADVYGVTEVLHGLQLKIGILKNKHHPDLHLWACSGKRKDQDQIIAGVEKKIAQDTVNREEKKYVQNHKEPPRLPLKMEGTYITSEHSYQKPQSFGQDCKSLADPGSSDDDDVSSLEEEQEFHMRSKNSLQYSAKEHGMPEKNPAEGNTVFVYNDKKGTEDPGDSHLQWQLNLLTHIENVQNEVTSRMDLIEKEVDVLESWLDFTGELEPPDPLARLPQLKRHIKQLLIDMGKVQQIATLCSV”, the protein production result was “not failed”.

As for “MIQLVIRLGLLALLIFWTLYLIRPFVTILVWALVLAVAFNPIFLVLAKILGGRAKLAAGLLTAINLAIVIGPAAWLGLGAVDGIRDFAGELAAGDLVIPSPPAAIKTWPLIGTPLYEFWDQASTNLRSVVQRIAPYLKPFAGTLLGIAGDAGVGTIKFLLSVVVAGCLFPYGPQLVAAGRSFLSRIVPEQSEHFLDLAGATIRAVAQGVIGIAVVQALLAGIGFKLAGIPIAGLLALLVLLLSIVQIGGAIIMLPVMIWIWTDKDVTVAVLLTLFLGIVSILDNILKPLVMGRGLTTPALVILIGVIGGTLGHGIVGLFIGPIVLSVAWELTVAWIRTDRASAASQATIDR”, the protein production entry is recorded as “failed”.

For “MIQMDGGDRLRVTLLDRMSTVESSRSCLTLEAILMADKNRTSPQILSPPPSRSQSNRSLVEVMQREHRHSRDKTAWKSLREKLRLKRNGSVWISSNSIPSLDTPIPNRDNVSHQLGFLLSNSGNVTEEASSVEGRIRLGAVLAEERALSAREEETPAEREVEPARMSLMELLEENEGQMSFVSVDGEAEEEVAAVTAAEISCCVCMVRSKGAAFIPCGHTFCRLCSRELWVQRGNCPLCNTTILEVLDLF”, the protein production result is “failed”. Consider “MIQMVKRVHIFDWHKEHARKIEEFAGWEMPIWYSSIKEEHLAVRNAVGIFDVSHMGEIVFRGKDALKFLQYVTTNDISKPPAISGTYTLVLNERGAIKDETLVFNMGNNEYLMICDSDAFEKLYAWFTYLKRTIEQFTKLDLEIELKTYDIAMFAVQGPKARDLAKDLFGIDINEMWWFQARWVELDGIKMLLSRSGYTGENGFEVYIEDANPYHPDESKRGEPEKALHVWERILEEGKKYGIKPCGLGARDTLRLEAGYTLYGNETKELQLLSTDIDEVTPLQANLEFAIYWDKDFIGKDALLKQKERGVGRKLVHFKMIDKGIPREGYKVYANGEMIGEVTSGTLSPLLNVGIGIAFVKEEYAKPGIEIEVEIRGQRKKAVTVTPPFYDPKKYGLFRET”, for which the protein production result is recorded as “not failed”. In the case of “MIQVPASFDIQGHRGCRGLLPENTIAAFTKALLLGVTTLEFDLVISKDNRVVVSHDTFFHHEITMMVDGEDVTEANEKNFNLYAMNYADIKEIDVGMKTHPRFKSQKKVPAVKPLFRELIETAEKLSAKIQYNGEIKSTVEGDNIDHPNIALFCDLVVAEIKKAHITDRFTLQSFDVRALEYMHSQYPDIKLSYLVETKGTLKKQLEKLSFTPAVYSPDVTLVSKKDIDAAHKLGMRVIPWTVNTKEEIETLISLGVDGIITDYPDLFFEK”, the protein production result is reported as “not failed”. Consider “MIREFFQKYFIDPIKYNTGYNPVNTLVYAIILGIATLLVYKVLKRLKIEINNAFFRALIPYMIFGAFTRALTDAGVFPRTYLTVSPGIYFLVFVIAFSALLVSHKFAKDWRGVFLWFGWGLVMVDLAAMSANISKINFDFAVLKYFIPFLILAELVVFLLSKKVSLVRENSYLFYAHFYDATTTFVGVDFMGYWEQHVLPRLLIGLTGTAAVMYVLKFIILFAAVWLLKELEKEGEEKELLDFIKMVIFILGFAPGTRNLLRMLMGV”, for which the protein production entry is “failed”. Turning to “MIRFYMSLSVVKHTILYLCFIFLLLYLKKRYPDNVIIGFFLKIRWCFINSMLHLHFIAIWIAGYRNRCSNSSWNFGYFGCCVETQAKVGRTATNLLLTES”, the protein production entry was “failed”. For “MIRIKTPSEIEKMKKAGKAVAVALREVRKVIVPGKTAWDVETLVLEIFKKLRVKPAFKGYGGYKYATCVSVNEEVVHGLPLKEKVFKEGDIVSVDVGAVYQGLYGDAAVTYIVGETDERGKELVRVTREVLEKAIKMIKPGIRLGDVSHCIQETVESVGFNVIRDYVGHGVGRELHEDPQIPNYGTPGTGVVLRKGMTLAIEPMVSEGDWRVVVKEDGWTAVTVDGSRCAHFEHTILITENGAEILTKEG” the value was “not failed”.

“MIRKYRYGAPFDTEALTEKIETAEEAFPYGEISQKEGFAFTYIMDEDDIVYGLGESNRGINKRGYCYISNCTDDPIHTEDKRSLYGAHNFIIVSGKTTFGLFFDYPSKLTFDIGYTRMDTLKVSCENADLDIYVIEGENAYDIVKQFRRVIGRSYIPPKFAFGFGQSRWGYTTKEDFRAVAKGYRENHIPIDMIYMDIDYMQDFKDFTVNEKNFPDFPEFVKEMKDQELRLIPIIDAGVKVEKGYEVYEEGVKNNYFCKREDGSDFVAAVWPGDTHFPDMLNPEARKWFGDKYRFLIDQGIEGFWNDMNEPAIFYSSEGLAEAKEFAGEFAKDTEGKIHPWAMQAKMKDIVNSPEDYKRFYHNVNGKKIRHDKVHNLFGYNMTRAAGEAFERIDPEKRFLMFSRSSYIGMHRYGGIWMGDNKSWWSHILLNLKMLPSLNMCGFMYTGADLGGFGDDTTRDLLLRFLALGVFTPLMRDHAAEGTREQECYQFENIEDFRSVINARYRLVPYLYSEYMKAALNDDMYFKPLGFVYPDDKMAIRVEDQLMLGNEIMIAPVYEQNARGRYVYLPEEMKFIKFMPDGSISEEVLEKGVHYVDVALNEVPLFIRSGKCIPVAEAAECVKDIDTENMQLIGYEGSSYTLYEDDGIHKDYDKKENYRVLTK”: the protein production entry is given as “not failed”.

Consider “MIRLAAIDVDGTLTDRDRLISTKAIESIRSAEKKGLTVSLLSGNVIPVVYALKIFLGINGPVFGENGGIMFDNDGSIKKFFSNEGTNKFLEEMSKRTSMRSILTNRWREASTGFDIDPEDVDYVRKEAESRGFVIFYSGYSWHLMNRGEDKAFAVNKLKEMYSLEYDEILVIGDSNNDMPMFQLPVRKACPANATDNIKAVSDFVSDYSYGEEIGQIFKHFELM”, for which the protein production result is “not failed”. For “MIRMTKVDIISGFLGAGKTTFIKQLINQAFAGEKLVLIENEFGEIGIDGGFLKNAGIEITEMNSGCICCTLVGDFSKALKKVLEEYQPDRVIIEPSGVGKLSDIMKAIEDVKKDADIAIDGRITVVDGKKAKLYLKNFGEFFKDQVEHASAIVISRTQAMSDDKIEECVHMLRDENKEAAIISTPWAQLGKEAIIHALEKGSELAGLLEETHGQECCHHEHHHHEHEACGHEHHHHHADEIFTSWGKETAHKYTKEELDFMLKALSETEAYGTVLRSKGIIQMSDGSWRQFDLVPQEYEVREGQPDYTGRLCVIGTDLKEEELMTLFHLKLEHHHHHH” the value was “failed”; for “MIRNSGIHHEKLSQLLQSGHSLWVLYLDIAKFHEVEFRQGYRACAQILDLVLTEMKHTLHNYMHLFHTILLDYQGGDDFLFYFAPNENTPWSIAKLIPEFVPTLESRINHRIQRLVNETITLHSGLVECKPQPGRSVDYLLYGALKEAFLLNKSEPDPLYFSHREEVNRLLEEPQTYLSSAFQPILDVVSGEFFGFEALTRLKPPSSFAGIADLFPFAEKIGQLYPVETICRRTAILNSSQILRPKELLFLNVEPQVLTDPEFSSGQTRRLLETQGLTPSDVVLEITERSAIANYGTFREALEHYRKQGYLIALDDVGAGYSSLQSIAELHPDFLKIDRCLIQGIHLDPIKWALFETFVTFSRRIGCRILAEGVETQEEMRTVVQLGADYVQGYFIAKPSFTRPELSDPVTQIVQSQQRLSFNSEKTVQHLLEPLPLVTPQTTVNAVQNYFEEHAKIWLIGVADKGELLGVVQRDNLYSALATPFGVSLYSQRPVTSLMNNKQLLIEDTTPIEVASSLAMARPDAHLYDGIVVVQQQKPIGMIRVASLIKAMSDTQLQIAQGASPLTGLPGNSAIEQEIKRRLNSGNAFGMIYADLNQFKAFNDTYGFQYGDSIIKLLGKILMQDSLKADDLAFVGHVGGDDFIILTTQNVTKTLGETILLSFQEQLSAMQGAQDLSLALAGLIIYPHTAWTPATLSERIAAVKREAKKAHCNYFLLRE”, “failed”.

On to “MIRNTSNGWGSVSRWLHWILALTIIGMIGFGWWMNHIPARPDRFFYRSIHADIGYVILLLTVLRLVWRVVNPTPALPADSQPWQRLAARISHGALYLAVIAVIVLGWAHSGAHAPDYSDFFGLFHVPQFTSPDRAAANAYEDRHILFAYVLLALIAVHVVAALWHHFIRRDRVVTRMVADEAG”, for which the protein production entry is reported as “failed”.
